Assays:
human C3b (human) [1] = biological target: human C3b (human) (UniProt P01024); test: SPR; Biacore T200; human C3b amine-coupled; multicycle kinetics, serial 2-fold dilutions of peptide, 120 s injection, 180 s dissociation, regeneration 1 M NaCl; 25 °C, HBST pH 7.4; Langmuir 1:1 fit, KD = kd/ka; mean of 3 experiments
human C3b (human) [2] = biological target: human C3b (human) (UniProt P01024); test: SPR; Biacore T200; human C3b amine-coupled; 25 °C, HBST pH 7.4; KD determined as steady state affinity
human C3b (human) [3] = biological target: human C3b (human) (UniProt P01024)
human C3b (human) [4] = biological target: human C3b (human) (UniProt P01024); test: SPR; Biacore T200; human C3b amine-coupled; single-cycle kinetics, 5 increasing concentrations (0.5-40 nM), final dissociation 100-240 min; 25 °C, HBST pH 7.4; global Langmuir 1:1 fit; mean of 3 experiments
human C3b (human) [5] = biological target: human C3b (human) (UniProt P01024); remark: listed apart in the source

Substance | Kd (human C3b (human) [1]) | koff (human C3b (human) [1]) | kon (human C3b (human) [1]) | other results
Cp01 Arg11Lys analog (peptide) | 502 nM | 0.15 s⁻¹ | 300000 M⁻¹ s⁻¹ | 
Cp01 Arg11Ser analog (peptide) | 529 nM | 0.16 s⁻¹ | 330000 M⁻¹ s⁻¹ | 
Cp01 Asp6Asn analog (peptide) | 219 nM | 0.11 s⁻¹ | 540000 M⁻¹ s⁻¹ | 
Cp01 Asp6Glu analog (peptide) | 528 nM | 0.18 s⁻¹ | 380000 M⁻¹ s⁻¹ | 
Cp01 Asp6Ser analog (peptide) | 609 nM | 0.18 s⁻¹ | 310000 M⁻¹ s⁻¹ | 
Cp01 Val3Leu analog (peptide) | 552 nM | 0.11 s⁻¹ | 200000 M⁻¹ s⁻¹ | 
Cp01 aIle3 analog (peptide) |  |  |  | Kd (human C3b (human) [2]): 545 nM
Cp01-V3I (peptide) | 19.8 nM | 0.017 s⁻¹ | 880000 M⁻¹ s⁻¹ | IC50 of inhibition of alternative pathway complement activation (AP ELISA, diluted normal human serum; the target in serum is C3) (human C3b (human) [3]): 200 nM; IC50 of inhibition of classical pathway complement activation (CP ELISA, diluted normal human serum; the target in serum is C3) (human C3b (human) [3]): 430 nM
Cp05 Ile3 analog (peptide) | 1.5 nM | 0.002 s⁻¹ | 1.14e+06 M⁻¹ s⁻¹ | 
Cp40 aIle3 analog (peptide) |  |  |  | Kd (human C3b (human) [4]): 15.6 nM; koff (human C3b (human) [4]): 0.007 s⁻¹; kon (human C3b (human) [4]): 460000 M⁻¹ s⁻¹
compstatin analog Cp01 (peptide) |  |  |  | IC50 of inhibition of alternative pathway complement activation (AP ELISA, diluted normal human serum; the target in serum is C3) (human C3b (human) [3]): 1400 nM; IC50 of inhibition of classical pathway complement activation (CP ELISA, diluted normal human serum; the target in serum is C3) (human C3b (human) [3]): 20000 nM
compstatin analog Cp05 (peptide) | 46.8 nM | 0.014 s⁻¹ | 300000 M⁻¹ s⁻¹ | 
compstatin analog Cp40 (peptide) |  |  |  | Kd (human C3b (human) [4]): 0.7 nM; koff (human C3b (human) [4]): 0.001 s⁻¹; kon (human C3b (human) [4]): 1.76e+06 M⁻¹ s⁻¹; IC50 of inhibition of classical pathway complement activation (CP ELISA, 5% human serum) (human C3b (human) [5]): 158 nM
compstatin analog Cp60 (peptide) |  |  |  | Kd (human C3b (human) [4]): 0.08 nM; koff (human C3b (human) [4]): 0.0001 s⁻¹; kon (human C3b (human) [4]): 1.76e+06 M⁻¹ s⁻¹; target residence (human C3b (human) [4]): > 100 min; IC50 of inhibition of classical pathway complement activation (CP ELISA, 5% human serum) (human C3b (human) [5]): 97 nM

Source: PMC13181761, “New Analogs of the Compstatin Family of Clinical Complement Inhibitors with Low Picomolar Target Affinity” (Journal of Medicinal Chemistry, 2026)
